This is an account of results in US8795990B2, “Recombinant enzyme with altered feedback sensitivity” (Metabolic Explorer, priority 2004, dated 2014).

Numbering of substitutions follows the chain as printed. Names may count otherwise. Converted amounts (≈) assume the structure as drawn.

Data set [1] has as its system E. coli. As to conditions: growth rate of E. coli; cited from earlier work.
Data set [2] deals with homoserine transsuccinylase enzyme MetA (Escherichia coli, UniProt P07623). As to conditions: in words; cited from earlier work.
Sequence of homoserine transsuccinylase enzyme MetA (P07623 whole entry): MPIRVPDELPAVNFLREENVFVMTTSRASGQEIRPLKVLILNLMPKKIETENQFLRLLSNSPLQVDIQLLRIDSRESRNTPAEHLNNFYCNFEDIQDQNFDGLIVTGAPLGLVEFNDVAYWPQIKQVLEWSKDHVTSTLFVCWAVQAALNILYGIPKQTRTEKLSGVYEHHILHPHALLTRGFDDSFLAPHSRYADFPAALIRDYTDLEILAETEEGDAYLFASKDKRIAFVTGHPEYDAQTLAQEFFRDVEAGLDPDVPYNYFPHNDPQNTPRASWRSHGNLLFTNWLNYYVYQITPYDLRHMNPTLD
The test system of data set [3] is S-adenosylmethionine synthetase. The data set is described as follows: S-adenosylmethionine synthetase (MAT) activity in vitro in crude extracts, FIA-MS/MS. Type of data set: biochemical, E. coli. As to conditions: 10 mM methionine, 10 mM ATP, 37° C., 30 minutes.
Data set [4] relates to homoserine transsuccinylase. Description: Homoserine transsuccinylase activity in vitro in crude extracts, succinylhomoserine quantified by GC-MS, with or without methionine and S-adenosylmethionine. To be noted: for MetA activity of clones in pTRC99A: alleles cloned in pTRC99A with an alanine between amino acid 1M and 2P.
Protocol: The activity of homoserine transsuccinylase was determined in vitro E. coli strains carrying either wild-type or mutant-enzymes were cultured in rich medium with 2.5 g/l glucose and harvested at late log phase. Cells were resuspended in cold potassium phosphate buffer and sonicated on ice (Branson sonifier, 70W). After centrifugation, proteins contained in the supernatants were quantified (Bradford, 1976).
Ten μl of the extracts were incubated for 30 minutes at 25° C. with 30 mM homoserine and 4 mM succinyl-CoA. Methionine and/or S-adenosylmethionine were added as indicated. The succinylhomoserine produced by homoserine transsuccinylase enzymes was quantified by GC-MS after derivatization with tert-butyldimethylsilyltrifluoroacetamide (TBDMSTFA). L-Serine[1-13C] was included as an internal standard.
[5] abbreviates: Methionine 0 mM, S-adenosylmethionine 0 mM, rich medium extracts.
The mark [6] stands for this setting: Methionine 0 mM, S-adenosylmethionine 0.1 mM.
The mark [7] stands for this setting: Methionine 0 mM, S-adenosylmethionine 1 mM.
[8] abbreviates: Methionine 10 mM, S-adenosylmethionine 0 mM.
The mark [9] stands for this setting: Methionine 10 mM, S-adenosylmethionine 0.1 mM.
[10] abbreviates: Methionine 10 mM, S-adenosylmethionine 1 mM.

With `CSCC[C@](C)(N)C(=O)O` [α-methylmethionine], in data set [1], the “minimal concentration for a maximal inhibition” value is 5 µg/mL and the minimal inhibitory concentration was 1 µg/mL (≈ 6.13 µM). In data set [2], the “inhibition of homoserine transsuccinylase enzyme MetA” value is reported as “potent inhibitor”.

B1: MetK* T227I (protein, UniProt P0A817 2-384, looked up, variant T227I)
S-adenosylmethionine synthase: AKHLFTSESVSEGHPDKIADQISDAVLDAILEQDPKARVACETYVKTGMVLVGGEITTSAWVDIEEITRNTVREIGYVHSDMGFDANSCAVLSAIGKQSPDINQGVDRADPLEQGAGDQGLMFGYATNETDVLMPAPITYAHRLVQRQAEVRKNGTLPWLRPDAKSQVTFQYDDGKIVGIDAVVLSTQHSEEIDQKSLQEAVMEEIIKPILPAEWLTSATKFFINPIGRFVIGGPMGDCGLTGRKIIVDTYGGMARHGGGAFSGKDPSKVDRSAAYAARYVAKNIVAAGLADRCEIQVSYAIGVAEPTSIMVETFGTEKVPSEQLTLLVREFFDLRPYGLIQMLDLLHPIYKETAAYGHFGREHFPWEKTDKAQLLRDAAGLK
Turning to B1, the “MAT (S-adenosylmethionine synthetase activity)” value (“MAT” for short) in data set [3] was 4.9 mUI/mg prot.

B2: MetK* P137L (protein, UniProt P0A817 2-384, looked up, variant P137L)
S-adenosylmethionine synthase: B1 S-adenosylmethionine synthase with P137L, I227T
For the molecule B2, the “MAT” value in data set [3] was found to be 1.2 mUI/mg prot.

B3: MetK* H189Y (protein, UniProt P0A817 2-384, looked up, variant H189Y)
S-adenosylmethionine synthase: B1 S-adenosylmethionine synthase with H189Y, I227T
For B3, the “MAT” value in data set [3] turned out to be 0.6 mUI/mg prot.

B4: MetK* S59N + G105S (protein, UniProt P0A817 2-384, looked up, variant S59N G105S)
S-adenosylmethionine synthase: B1 S-adenosylmethionine synthase with S59N, G105S, I227T
B4: the “MAT” value in data set [3] amounted to 2.9 mUI/mg prot.

B5: MetK* G105S (protein, UniProt P0A817 2-384, looked up, variant G105S)
S-adenosylmethionine synthase: B1 S-adenosylmethionine synthase with G105S, I227T
Regarding B5, the “MAT” value in data set [3] stood at 2.8 mUI/mg prot.

B6: MetK* G115S (protein, UniProt P0A817 2-384, looked up, variant G115S)
S-adenosylmethionine synthase: B1 S-adenosylmethionine synthase with G115S, I227T
As to B6, the “MAT” value in data set [3] is 0.4 mUI/mg prot.

B7: MetK* H143T (protein, UniProt P0A817 2-384, looked up, variant H143T)
S-adenosylmethionine synthase: B1 S-adenosylmethionine synthase with H142T, I227T
Turning to B7, the “MAT” value in data set [3] came out at 2.5 mUI/mg prot.

B8: MetK* R161C + P235S (protein, UniProt P0A817 2-384, looked up, variant R161C P235S)
S-adenosylmethionine synthase: B1 S-adenosylmethionine synthase with R161C, I227T, P235S
For the molecule B8, the “MAT” value in data set [3] is 0.7 mUI/mg prot.

B9: WT: wild-type E. coli S-adenosylmethionine synthetase (MetK) (protein, UniProt P0A817 2-384, looked up)
S-adenosylmethionine synthase: B1 S-adenosylmethionine synthase with I227T
Regarding B9, the “MAT” value in data set [3] turned out to be 7.5 mUI/mg prot.

B10: metA: wild-type E. coli homoserine transsuccinylase (metA gene, strain MG1655) (protein, UniProt P07623 2-309, looked up)
Homoserine …: PIRVPDELPAVNFLREENVFVMTTSRASGQEIRPLKVLILNLMPKKIETENQFLRLLSNSPLQVDIQLLRIDSRESRNTPAEHLNNFYCNFEDIQDQNFDGLIVTGAPLGLVEFNDVAYWPQIKQVLEWSKDHVTSTLFVCWAVQAALNILYGIPKQTRTEKLSGVYEHHILHPHALLTRGFDDSFLAPHSRYADFPAALIRDYTDLEILAETEEGDAYLFASKDKRIAFVTGHPEYDAQTLAQEFFRDVEAGLDPDVPYNYFPHNDPQNTPRASWRSHGNLLFTNWLNYYVYQITPYDLRHMNPTLD
For B10, the Specific activity in data set [4] (setting [5]) came to 36.7 mUI/mg proteins; in data set [4] (setting [6]), 27.9 mUI/mg proteins; in data set [4] (setting [7]), 4.7 mUI/mg proteins; in data set [4] (setting [8]) it was 0.4 mUI/mg proteins; in data set [4] (setting [9]), 0.2 mUI/mg proteins; in data set [4] (setting [10]), 0.1 mUI/mg proteins. Besides, in data set [4], the “MetA activity of clones in pTRC99A” value is given as “vary low”.

B11: metA*11: mutant homoserine transsuccinylase allele, CAG exchanged for GAG, Q replaced by E (Q64E) (protein, UniProt P07623 2-309, looked up, variant Q64E)
Homoserine …: B10 Homoserine … with Q63E
B11: the Specific activity in data set [4] (setting [5]) was 19.2 mUI/mg proteins; in data set [4] (setting [6]), 21.7 mUI/mg proteins; in data set [4] (setting [7]), 18.5 mUI/mg proteins; in data set [4] (setting [8]), 18.7 mUI/mg proteins; in data set [4] (setting [9]), 16.9 mUI/mg proteins; in data set [4] (setting [10]) it was 2.7 mUI/mg proteins. For the same molecule, the “MetA activity of clones in pTRC99A” value in data set [4] was “vary low”.
